Results taken from paper PMC8692065 (Cell Reports, 2021).

How the values were obtained:
SARS-CoV-2 S2-mFc = SARS-CoV-2 S2-mFc (SARS-CoV-2, original strain, UniProt P0DTC2); assay: flow cytometry on cells
SARS-CoV-2 RBD-mFc = SARS-CoV-2 RBD-mFc (SARS-CoV-2, original strain, UniProt P0DTC2); assay: flow cytometry on cells
SARS-CoV-2 Nucleocapsid = SARS-CoV-2 Nucleocapsid (SARS-CoV-2, UniProt P0DTC9); assay: ELISA

B1: mAb-115, displayed on nPnP hybridoma cells (single-ORF linker format) (antibody, V domains shown)
VH: EVQVVESGGGLVKPGGSLRLSCSVSGTTLADAWLNWVRQAPGKGLEWVGRIKSKPDVGTTEYAAPVKGRFIISRDDSGNSFFLQMTDLKPEDTAVYYCAARWEMQLWLRLFDFWGPGALVTVSS
VL: EIVVTQSPATLSVSAGERANLSCRTSQSISRDLAWYQQKPGQAPRLLIYGVFSRATGIPARFSGSGSGTEFTLTISSLQSEDFAVYYCQQYNKWWTFGQGTKVEIK
binding result (SARS-CoV-2 S2-mFc): binds

B2: mAb-111, displayed on nPnP hybridoma cells (single-ORF linker format) (antibody, V domains shown)
VH: DVQLLESGGGLVQPGGSRRLSCAASGFTFSNHAMSWVRQAPGKGLEWVSSISGSGGSTDYGDSVKGRFIVSRDNPRNTLYLDMNNLRTQDTAVYYCAKDRTFFTDSMLESWGEGTLVTVSS
VL: DIQMTQSPSSLSASVGDRVTITCRASQTISKSLNWYQQRPGKAPKLLIYAASNLQSGFPSRFSGSGSGTDFTLTISSVQPGDFATYYCQQTYSTPVTFGQGTTLEIK
binding result (SARS-CoV-2 S2-mFc): binds

B3: mAb-80, displayed on nPnP hybridoma cells (single-ORF linker format) (antibody, V domains shown)
VH: EVQLVESGGGLVQPGGSLRLSCAASGFTFSSYWMHWVRQAPGKGLVWVSRINSDERNTRYADSVRGRFTISRDNAKNTLSLQMNSLRVDDTAVYYCARGGAAISYLYYYYGMDVWGQGTTVTVSS
VL: not shown
binding result (SARS-CoV-2 S2-mFc): binds

B4: mAb-76, displayed on nPnP hybridoma cells (single-ORF linker format) (antibody, V domains shown)
VH: QVQLQQWGAGLLKPSETLSRTCGVYGGSFSGFYWSWIRQPPGKGLEWIGEINQSGTTSYNPSLMSRVTVSVDTSKNQFSLKLNSVTAADTAVYYCARRRSSWFEAGVHWYFDLWGRGTLVTVSS
VL: DIVMTQSPLSLAVTPGEPASISCRSSQSLLHSNGYNYLDWYLQKPGQSPQVLIYLGSNRASGVPDRFSGSGSGTDYTLKISRVEAEDAGVYYCMQALQTPTFGRGTKLEIK
binding result (SARS-CoV-2 RBD-mFc): binds

B5: mAb-78, displayed on nPnP hybridoma cells (single-ORF linker format) (antibody, V domains shown)
VH: QVQLVESGGGVVQPGRSLTLSCAVSGFSFNNYGMHWVRQAPGKGLEWVSFISYEGSKRYYMDSLKGRFTISRDSSKNEVYLQMNRLTPEDTAVYYCAKSRAYFHFSAGRGVFDYWGRGALVTVSS
VL: DMQMTQSPSSLSASVGDRVTITCQASQDIGTYLNWYRHKPGEAPKLLIYHASNLETGVPSRFSGSGSGTDFSFTISSLQPEDIGTYYCQQYDDLPVFAFGPGTKVDLK
binding result (SARS-CoV-2 S2-mFc): binds

B6: CR3022, secreted by nPnP hybridoma cells (single-ORF linker format), supernatant (antibody, V domains shown)
VH: QMQLVQSGTEVKKPGESLKISCKGSGYGFITYWIGWVRQMPGKGLEWMGIIYPGDSETRYSPSFQGQVTISADKSINTAYLQWSSLKASDTAIYYCAGGSGISTPMDVWGQGTTVTVSS
VL: not shown
binding result (SARS-CoV-2 Nucleocapsid): no binding

B7: mAb-56, displayed on nPnP hybridoma cells (single-ORF linker format) (antibody, V domains shown)
VH: EVQLVESGGGLIQPGGSMRLSCAASGFSVGTTYMSWVRQAPGKGLEWVSVVFKGHDTYYRKSVKGRFTISRDSSKNTLYLQMSDLRAEDSAVYFCTNMVLTYDSGWYWLDYWGQGIRVTVSS
VL: DIQMTQSPSPLSAFVGDMVTITCRASQSINNFLNWYQQKPGKAPRLLIYGASTLETGVPTRFSGSGSGTDFTFTISSLQPEDIATYYCQQYDNLPLTFGGGTKVEIK
binding result (SARS-CoV-2 RBD-mFc): binds
